Source: publication PMC10786401

What was measured:
[1] = biological target: N67A mutant ZIKV capsid (C) protein as N-terminal MBP fusion (MBP-C_(N67A)) (Zika virus MR766); assay: cross-linking; glutaraldehyde 0, 0.25, 0.5 and 1.0 mM; MBP-C protein 0.16 mg/ml in PBS, 50 uL, room temperature, 20 min, stopped with 50 mM Tris pH 8; SDS-PAGE, Coomassie blue
[2] = biological target: Wild-type ZIKV capsid (C) protein as N-terminal MBP fusion (MBP-CWT) (Zika virus MR766); assay: as above

For “N67A mutant ZIKV capsid (C) protein as N-terminal MBP fusion (MBP-C_(N67A)) (natural protein)”, the stoichiometry N [1] was 2.

In the case of “Wild-type ZIKV capsid (C) protein as N-terminal MBP fusion (MBP-CWT) (natural protein)”, the stoichiometry N [2] is reported as 2.
